According to US20240269310A1 (GENERAL HOSPITAL, published 2024):

Experiments:
[1] = target: T1, recombinant human CDH1 (R&D Systems 8505-EC-050) (human, UniProt P12830 155-707); assay: western blot of recombinant purified protein
T1 construct: Bought protein; also called hCDH1; E-cadherin
T1 sequence (looked up): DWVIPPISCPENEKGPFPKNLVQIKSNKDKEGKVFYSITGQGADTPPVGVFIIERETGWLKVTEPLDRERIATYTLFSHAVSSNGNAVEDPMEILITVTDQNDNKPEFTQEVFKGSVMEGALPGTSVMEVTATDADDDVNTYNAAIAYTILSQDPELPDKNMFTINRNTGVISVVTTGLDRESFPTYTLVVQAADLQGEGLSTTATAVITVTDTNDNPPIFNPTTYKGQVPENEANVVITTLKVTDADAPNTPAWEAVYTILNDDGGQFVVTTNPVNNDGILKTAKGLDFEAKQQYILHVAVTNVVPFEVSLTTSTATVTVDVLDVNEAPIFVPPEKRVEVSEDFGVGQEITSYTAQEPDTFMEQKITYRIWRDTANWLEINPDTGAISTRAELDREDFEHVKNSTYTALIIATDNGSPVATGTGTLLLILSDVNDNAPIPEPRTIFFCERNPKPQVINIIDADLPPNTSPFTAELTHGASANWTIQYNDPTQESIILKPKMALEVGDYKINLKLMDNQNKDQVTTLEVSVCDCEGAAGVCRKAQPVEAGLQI
Protocol: (§1) Western blot analysis was performed on whole cell extracts prepared with RIPA buffer. Proteins were separated on 4-15% polyacrylamide gradient-SDS gels (Bio-Rad), and transferred onto nitrocellulose membrane (Invitrogen). Immunoblots were visualized with Enhanced Chemiluminescence (Perkin-Elmer). Primary antibodies were used against E-cadherin (1:5000; BDBiosciences Clone 36), N-cadherin (1:500; EBiosciences Clone 8C11) and GAPDH (1:2000; Millipore ABS16). 23C6 was also used as a primary antibody for western blot analysis (1:250). Recombinant protein obtained as follows: human CDH1 (R&D Systems 8505-EC-050), murine CDH1 (R&D Systems 8875-EC-050), human CDH2 (R&D Systems 1388NC050) and human CDH11 (Elabscience #PKSH032136).

[2] = target: T2, recombinant murine CDH1 (R&D Systems 8875-EC-050) (murine, UniProt P09803 157-709); assay: western blot of recombinant purified protein
T2 construct: Bought protein; also called mCDH1; recombinant murine E-cadherin protein
T2 sequence (looked up): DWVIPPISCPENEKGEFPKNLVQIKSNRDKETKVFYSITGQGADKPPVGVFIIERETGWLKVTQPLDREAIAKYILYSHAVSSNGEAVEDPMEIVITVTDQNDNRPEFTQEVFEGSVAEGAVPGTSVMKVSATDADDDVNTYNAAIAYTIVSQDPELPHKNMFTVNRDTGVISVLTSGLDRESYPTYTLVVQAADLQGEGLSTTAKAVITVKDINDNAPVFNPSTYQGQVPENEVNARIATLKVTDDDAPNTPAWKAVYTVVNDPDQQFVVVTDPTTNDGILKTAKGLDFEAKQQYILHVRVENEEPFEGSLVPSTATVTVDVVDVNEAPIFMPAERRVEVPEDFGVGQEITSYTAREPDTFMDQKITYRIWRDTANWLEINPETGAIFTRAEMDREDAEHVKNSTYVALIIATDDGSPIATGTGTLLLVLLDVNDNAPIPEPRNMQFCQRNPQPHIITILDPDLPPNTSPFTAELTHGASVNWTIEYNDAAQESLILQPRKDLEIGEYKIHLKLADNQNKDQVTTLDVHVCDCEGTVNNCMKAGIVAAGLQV
Protocol: as §1

[3] = target: T3, CDH1 (E-cadherin) as expressed by PDAC9 cells (human, UniProt P12830 155-882); assay: flow cytometry of fixed PDAC9 cells after siRNA knockdown
T3 construct: whole, on cells; On fixed cells in flow cytometry; In whole cell lysates in the western blot; PDAC9 is described as patient-derived and is used among the human xenograft models
T3 sequence (looked up): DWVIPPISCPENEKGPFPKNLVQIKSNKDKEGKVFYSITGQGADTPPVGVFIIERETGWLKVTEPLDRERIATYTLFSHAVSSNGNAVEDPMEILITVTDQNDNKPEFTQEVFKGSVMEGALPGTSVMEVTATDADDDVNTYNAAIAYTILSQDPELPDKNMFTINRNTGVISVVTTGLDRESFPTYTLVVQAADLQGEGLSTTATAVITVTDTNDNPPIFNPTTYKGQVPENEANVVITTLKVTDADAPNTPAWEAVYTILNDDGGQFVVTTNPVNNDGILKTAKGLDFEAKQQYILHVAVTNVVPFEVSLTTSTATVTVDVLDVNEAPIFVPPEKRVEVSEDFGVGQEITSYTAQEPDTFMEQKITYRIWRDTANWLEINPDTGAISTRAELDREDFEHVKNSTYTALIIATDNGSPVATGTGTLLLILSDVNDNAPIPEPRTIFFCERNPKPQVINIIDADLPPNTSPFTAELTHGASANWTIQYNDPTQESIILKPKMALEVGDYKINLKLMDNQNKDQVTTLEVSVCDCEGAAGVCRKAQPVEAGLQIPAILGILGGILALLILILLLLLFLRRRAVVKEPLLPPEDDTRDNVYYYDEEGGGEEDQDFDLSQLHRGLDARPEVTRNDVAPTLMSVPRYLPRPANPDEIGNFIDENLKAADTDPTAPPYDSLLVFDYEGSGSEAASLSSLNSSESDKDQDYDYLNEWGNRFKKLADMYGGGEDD
Protocol: Cell lines were routinely checked for mycoplasma (MycoAlert, Lonza), and were obtained from ATCC. […] PDAC9 were grown as previously described (Porter et al., Proc Natl Acad Sci USA, (2019)). Viability assays were performed at 48 hours after treatment with varying concentration of the 23C6 antibody or PBS control. Viability was determined using Cell Titer Glo reagent (Promega). Proliferation assays were performed by treating MDA-MB-231 cells with a single dose of 23C6 antibody or PBS control and timepoints as indicated, where the relative cell number was determined with the Cell TiterGlo reagent. For migration assays, the MDA-MB-231 cells were harvested with trypsin, and the cells suspended in serum free media. […] The cell suspensions were treated with 23C6 or control, and after 48 hours, the number of cells migrating through the membrane was determined by crystal violet staining and microscopic imaging with automated counting of individual cells using Image J. For siRNA knockdown, ONTARGETplus siRNA smartpools (Horizon Discovery) were obtained and transfected using Lipofectamine RNAiMax reagent (Invitrogen) and the cells harvested for analysis after 5 days. For flow cytometry, in brief the cells were fixed with 4% PFA, blocked with 5% BSA in PBS and incubated with the 23C6 antibody at 1:500 followed by anti-mouse IgG-AlexaFlour 555 and then analyzed on BD Fortessa machine.

[4] = target: T4, CDH11 as expressed by human breast cancer cells (MDA-MB-231 and breast cancer CTC lines Brx-142, Brx-330, … (human, UniProt P55287 54-796)); assay: western blot of whole cell extracts of MDA-MB-231 and CTC lines; shRNA knockdown as specificity control
T4 construct: whole, on cells; On cells in immunofluorescence and immunohistochemistry; In whole cell extracts (RIPA, SDS gel) in the western blots; also called Cadherin 11; OB-cadherin
T4 sequence (looked up): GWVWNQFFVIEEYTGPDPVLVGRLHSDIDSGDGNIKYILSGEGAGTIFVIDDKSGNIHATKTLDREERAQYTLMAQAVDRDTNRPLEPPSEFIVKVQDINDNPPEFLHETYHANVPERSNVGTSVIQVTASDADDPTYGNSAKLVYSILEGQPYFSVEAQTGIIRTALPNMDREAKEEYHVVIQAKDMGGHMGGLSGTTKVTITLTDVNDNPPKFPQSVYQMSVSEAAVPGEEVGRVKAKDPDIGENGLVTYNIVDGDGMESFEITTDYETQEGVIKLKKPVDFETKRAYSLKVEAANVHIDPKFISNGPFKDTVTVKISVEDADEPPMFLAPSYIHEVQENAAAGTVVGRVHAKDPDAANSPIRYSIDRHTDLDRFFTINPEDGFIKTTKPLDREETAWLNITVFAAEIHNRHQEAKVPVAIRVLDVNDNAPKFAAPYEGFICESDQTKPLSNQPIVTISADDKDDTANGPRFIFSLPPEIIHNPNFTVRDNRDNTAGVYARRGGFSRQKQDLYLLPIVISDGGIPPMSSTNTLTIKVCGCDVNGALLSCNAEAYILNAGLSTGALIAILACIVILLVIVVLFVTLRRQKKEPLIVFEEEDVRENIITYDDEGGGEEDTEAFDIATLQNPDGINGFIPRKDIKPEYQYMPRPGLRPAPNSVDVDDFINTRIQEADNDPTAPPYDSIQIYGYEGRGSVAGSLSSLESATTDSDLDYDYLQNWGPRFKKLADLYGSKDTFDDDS
Protocol: FIG. 1 is the RNA expression levels of cell adhesion molecules in the CTC lines Brx-82, Brx-142, Brx-394 AVG, Brx-189, Brx-390, Brx-121, Brx-292, Brx-319, Brx-250, Brx-140, or Brx-401 from breast cancer patients. The cell adhesion molecule CDH11 was expressed at the RNA level in multiple breast CTC cell lines (FIG. 1, black outline).
as §1

- binding result [1]: binds
- binding result [2]: binds
- binding result [3]: binds
- binding result [4]: binds
B1: anti-CDH11 monoclonal antibody clone 23C6 (antibody, V domains shown)
VH: EFQLQQSGPELVKPGASVKISCKASGYSFTDYNMNWVKQSNGKSLEWIGAINPNYGTTSYNQKFKGKATLTVDQSSSTAYMQLNSLTSEDSAVYYCTRLYYGSRYFDVWGTGTTVTVSS
VL: QIVVTQSPAIMSASLGERVTMTCTASSSVSSSYLHWYQQKPGSSPKLWIYSTSNLASGVPARFSGSGSGTSYSLTISSMEAEDVATYYCHQYHRSPPTFGGGAKLEIK
notes: also called 23C6 antibody; 23C6 anti-CDH11 antibody
